Reference: publication doi:10.1101/2021.10.13.464218 (bioRxiv, 2021)

Experiments:
[1] = molecular target: Ag2 (EPEA), displayed on E. coli (synthetic EPEA peptide tag (sequence …)); experiment: flow cytometry on cells
[2] = molecular target: intimin (EHEC adhesin), overexpressed on the E. coli surface (Escherichia coli O157:H7 (EHEC), …, UniProt P43261); experiment: flow cytometry on cells
Chain of intimin (EHEC adhesin), overexpressed on the E. coli surface (P43261 40-934): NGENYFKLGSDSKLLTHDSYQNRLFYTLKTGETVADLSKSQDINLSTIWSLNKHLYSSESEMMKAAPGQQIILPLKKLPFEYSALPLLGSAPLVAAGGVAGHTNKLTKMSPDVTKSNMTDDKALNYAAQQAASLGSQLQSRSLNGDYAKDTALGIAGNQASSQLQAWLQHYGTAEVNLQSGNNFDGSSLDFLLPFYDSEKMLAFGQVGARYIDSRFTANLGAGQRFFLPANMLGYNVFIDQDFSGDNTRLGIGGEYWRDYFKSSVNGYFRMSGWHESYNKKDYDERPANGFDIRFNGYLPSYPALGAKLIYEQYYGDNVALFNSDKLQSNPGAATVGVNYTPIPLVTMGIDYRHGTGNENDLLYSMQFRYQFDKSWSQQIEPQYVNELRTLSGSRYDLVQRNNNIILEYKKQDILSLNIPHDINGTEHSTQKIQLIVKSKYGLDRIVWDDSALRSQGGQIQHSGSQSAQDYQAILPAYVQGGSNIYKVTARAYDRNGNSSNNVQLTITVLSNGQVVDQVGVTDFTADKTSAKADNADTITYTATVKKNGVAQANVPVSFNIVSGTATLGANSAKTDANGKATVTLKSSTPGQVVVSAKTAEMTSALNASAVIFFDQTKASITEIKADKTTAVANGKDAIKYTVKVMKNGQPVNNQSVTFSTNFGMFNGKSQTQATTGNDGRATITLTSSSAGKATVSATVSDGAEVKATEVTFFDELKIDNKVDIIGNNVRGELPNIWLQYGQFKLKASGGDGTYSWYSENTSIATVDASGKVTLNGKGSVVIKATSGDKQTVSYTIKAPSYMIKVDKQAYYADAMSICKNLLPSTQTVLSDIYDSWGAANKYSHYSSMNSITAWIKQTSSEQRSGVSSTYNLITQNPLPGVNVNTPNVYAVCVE

Row | Binder | binding result [1] | binding result [2]
1 | Nb3 (anti-P53TA) nanobody, yeast-displayed (VHH) VHH: QVQLQESGGGSVRPGESLRLSCIAAGTLFSGKAVGWYRQAPGKDRELVAALSSGRETYYIGPVKGRFIISRDDNKDTLYLQMNNLKLEDTAIYTCRLGLHWGQGTQVTVSS | no binding | 
2 | IB10 nanobody against intimin, yeast-displayed (VHH) VHH: QVQLVESGGGSVQAGGSLRLSCKASGFTFPYSDMGWYRQTPGNECELVSTTGPESDPSFWYADSVKGRFTISRDNTKNTVYLQMNDLKPEDTGMYVCASELGAGSGRCYGYHYWGQGTQVTVSS |  | binds
